Here are results for 34 molecules from US20030104377, “Tenascin-C nucleic acid ligands” (Gilead Sciences, Inc., published 2003).

What all share (conditions): tags: Chemicon (Temecula, CA)
Data set [1] has as its target T1, Tenascin-C (Homo sapiens, UniProt P24821 P24821:23-2201). Put plainly: filter; orphan. As to the method: (§1) which contains the T7 polymerase promoter (underlined). RNA was prepared with T7 RNA polymerase as described previously in Fitzwater, T., and Polisky, B. 1996. A SELEX primer. Methods Enzymol. 267, 275-301, incorporated herein by reference in its entirety. All transcription reactions were performed in the presence of pyrimidine nucleotides that were 2′-fluoro (2′-F) modified on the sugar moiety. This substitution confers enhanced resistance to ribonucleases that utilize the 2′-hydroxyl moiety for cleavage of the phosphodiester bond. Specifically, each transcription mixture contained 3.3 mM 2′-F UTP and 3.3 mM 2′-F CTP along with 1 mM GTP and ATP. The initial randomized RNA library thus produced comprised 3×10¹⁴ molecules. The affinities of individual ligands for tenascin-C were determined by standard methods using nitrocellulose filter partitioning (Tuerk C, Gold L. Science Aug. 3, 1990 3;249(4968):505-10).

The target in data set [2] is T1, Tenascin-C. Put plainly: filter; Family I. As for the experimental part: as §1
Data set [3] addresses T1, Tenascin-C. In words: filter; Family II.
Data set [4] has as its target T1, Tenascin-C. In words: filter; unit printed as nN. An excerpt: (§2) Oligonucleotide synthesis procedures were standard for those skilled in the art (Green L S, Jellinek D, Bell C, Beebe L A, Feistner B D, Gill S C, Jucker F M, Janjic N. Chem Biol 1995 Oct.;2(10):683-95). 2′-fluoro pyrimidine phosphoramidite monomers were obtained from JBL Scientific (San Luis Obispo, Calif.); 2′-OMe purine, 2′-OH purine, hexyl amine, and (CH₂CH₂O)₆ monomers, along with the dT polystyrene solid support, were obtained from Glen Research (Sterling, Va.). Aptamer affinities were determined using nitrocellulose filter partitioning (Green et al., supra).

Data set [5] deals with T1, Tenascin-C. In words: filter.
Text: as §2

In data set [6] the target is T1, Tenascin-C. Put plainly: filter; Family I; printed as 7N22.
For data set [7], the target named is T1, Tenascin-C. In words: filter. This is another data set of the same source.

T1 sequence (P24821 23-2201, one chain of several): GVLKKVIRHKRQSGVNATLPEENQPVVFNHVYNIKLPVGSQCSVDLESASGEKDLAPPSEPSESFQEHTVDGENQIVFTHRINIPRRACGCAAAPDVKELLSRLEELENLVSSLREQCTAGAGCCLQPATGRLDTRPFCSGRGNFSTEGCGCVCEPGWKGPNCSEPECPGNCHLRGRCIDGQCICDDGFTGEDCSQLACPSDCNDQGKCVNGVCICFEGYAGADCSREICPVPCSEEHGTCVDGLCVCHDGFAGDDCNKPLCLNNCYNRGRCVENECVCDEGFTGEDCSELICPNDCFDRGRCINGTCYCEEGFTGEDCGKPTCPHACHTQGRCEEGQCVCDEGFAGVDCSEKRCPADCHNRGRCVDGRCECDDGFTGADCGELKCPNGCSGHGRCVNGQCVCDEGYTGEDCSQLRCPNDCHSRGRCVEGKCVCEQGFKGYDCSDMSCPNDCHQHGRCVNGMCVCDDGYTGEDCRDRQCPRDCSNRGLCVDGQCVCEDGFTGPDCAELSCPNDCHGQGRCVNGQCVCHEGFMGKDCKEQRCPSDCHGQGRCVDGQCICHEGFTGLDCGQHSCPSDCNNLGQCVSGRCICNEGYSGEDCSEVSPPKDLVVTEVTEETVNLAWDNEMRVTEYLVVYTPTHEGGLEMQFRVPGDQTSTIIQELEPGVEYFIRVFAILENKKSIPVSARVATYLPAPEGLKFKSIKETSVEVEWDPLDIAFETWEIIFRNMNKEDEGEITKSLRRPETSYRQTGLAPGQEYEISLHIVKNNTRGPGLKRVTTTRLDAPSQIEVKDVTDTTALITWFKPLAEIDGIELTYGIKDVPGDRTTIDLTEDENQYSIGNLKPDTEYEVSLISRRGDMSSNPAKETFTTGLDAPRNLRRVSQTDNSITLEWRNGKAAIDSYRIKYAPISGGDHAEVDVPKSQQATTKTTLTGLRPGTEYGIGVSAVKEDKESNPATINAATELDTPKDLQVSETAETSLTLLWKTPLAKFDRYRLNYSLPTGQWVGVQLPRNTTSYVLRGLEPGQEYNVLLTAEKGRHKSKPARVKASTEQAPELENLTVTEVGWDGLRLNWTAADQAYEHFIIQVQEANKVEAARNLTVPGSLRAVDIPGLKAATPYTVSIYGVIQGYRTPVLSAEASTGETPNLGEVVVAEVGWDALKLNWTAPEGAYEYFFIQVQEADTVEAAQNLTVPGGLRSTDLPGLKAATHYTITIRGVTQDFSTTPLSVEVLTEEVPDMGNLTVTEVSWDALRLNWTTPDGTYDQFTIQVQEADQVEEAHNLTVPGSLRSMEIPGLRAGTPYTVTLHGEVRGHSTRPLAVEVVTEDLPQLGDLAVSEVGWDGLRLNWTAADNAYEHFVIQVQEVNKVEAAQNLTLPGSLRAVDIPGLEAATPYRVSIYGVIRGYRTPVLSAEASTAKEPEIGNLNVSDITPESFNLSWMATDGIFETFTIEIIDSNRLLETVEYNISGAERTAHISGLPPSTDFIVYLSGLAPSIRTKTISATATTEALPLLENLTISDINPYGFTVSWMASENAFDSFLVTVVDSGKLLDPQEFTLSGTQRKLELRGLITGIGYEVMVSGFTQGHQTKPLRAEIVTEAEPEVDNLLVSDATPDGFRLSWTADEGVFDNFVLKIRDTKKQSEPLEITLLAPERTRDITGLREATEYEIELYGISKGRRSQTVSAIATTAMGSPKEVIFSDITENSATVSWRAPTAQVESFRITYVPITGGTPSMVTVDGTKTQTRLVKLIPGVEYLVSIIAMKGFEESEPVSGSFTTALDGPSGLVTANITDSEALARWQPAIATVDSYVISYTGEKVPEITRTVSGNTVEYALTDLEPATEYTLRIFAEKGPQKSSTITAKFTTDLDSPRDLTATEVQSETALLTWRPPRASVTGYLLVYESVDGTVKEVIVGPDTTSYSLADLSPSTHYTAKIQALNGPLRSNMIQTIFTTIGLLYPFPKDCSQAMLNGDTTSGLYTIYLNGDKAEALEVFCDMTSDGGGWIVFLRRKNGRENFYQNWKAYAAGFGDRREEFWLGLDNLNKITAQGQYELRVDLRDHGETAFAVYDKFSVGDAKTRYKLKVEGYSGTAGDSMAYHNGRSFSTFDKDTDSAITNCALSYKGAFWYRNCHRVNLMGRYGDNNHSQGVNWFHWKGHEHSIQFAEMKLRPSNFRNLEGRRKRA

B1: TN18 (ssRNA)
RNA: GGGAGGACGAUGCGGUCGACCUCGAAUGACUCUCCACCUAUCUAACAUCCCCCCCCAGACGACUCGCCCGA
modifications: 2'-F C and U
With B1, the Kd – broadly, the constant that tells how readily two partners part at equilibrium – in data set [1] came to 145 nM.

B2: TN45 (ssRNA)
RNA: GGGAGGACGAUGCGGCAAUCUCCGAAAAAGACUCUUCCUGCAUCCUCUCACCCCCCAGACGACUCGCCCGA
modifications: 2'-F C and U
For the molecule B2, the Kd in data set [2] was 30 nM.

B3: TN11 (ssRNA)
RNA: GGGAGGACGAUGCGGCAAUCAAAACUCACGUUAUUCCCUCAUCUAUUAGCUUCCCCAGACGACUCGCCCGA
modifications: 2'-F C and U
In data set [2], B3 registered a dissociation constant (Kd) of 10 nM.

B4: TN9 (ssRNA)
RNA: GGGAGGACGAUGCGGAACAAUGCACUCGUCGCCGUAAUGGAUGUUUUGCUCCCUGCAGACGACUCGCCCGA
modifications: 2'-F C and U
In the case of B4, in data set [3], binding was characterised by a dissociation constant (Kd) of 5 nM.

B5: TN32 (ssRNA)
RNA: GGGAGGACGAUGCGGCAACCUCAAUCUUGACAUUUCCCGCACCUAAAUUUGCCCCCAGACGACUCGCCCGA
modifications: 2'-F C and U
On to B5, for which binding in data set [2] was put at a Kd of 15 nM.

B6: TN44 (ssRNA)
RNA: GGGAGGACGAUGCGGACGCCAGCCAUUGACCCUCGCUUCCACUAUUCCAUCCCCCCAGACGACUCGCCCGA
modifications: 2'-F C and U
B6 returned a Kd in data set [2] of 10 nM.

B7: TN29 (ssRNA)
RNA: GGGAGGACGAUGCGGCCAACCUCAUUUUGACACUUCGCCGCACCUAAUUGCCCCCAGACGACUCGCCCGA
modifications: 2'-F C and U
In turn, B7 registered a Kd in data set [2] of 25 nM.

B8: TN14 (ssRNA)
RNA: GGGAGGACGAUGCGGCAAACGAUCACUUACCUUUCCUGCAUCUGCUAGCCUCCCCCAGACGACUCGCCCGA
modifications: 2'-F C and U
Take B8: the dissociation constant (Kd) in data set [2] turned out to be 20 nM.

B9: TN41 (ssRNA)
RNA: GGGAGGACGAUGCGGUUAAGUCUCGGUUGAAUGCCCAUCCCAGAUCCCCCUGACCCAGACGACUCGCCCGA
modifications: 2'-F C and U
In data set [3], B9 came in with a dissociation constant (Kd) of 20 nM.

B10: TN7 (ssRNA)
RNA: GGGAGGACGAUGCGGAACACUUUCCCAUGCGUCGCCAUACCGGAUAUAUUGCUCCCAGACGACUCGCCCGA
modifications: 2'-F C and U
Turning to B10, binding in data set [3] was put at a Kd of 20 nM.

B11: TN27 (ssRNA)
RNA: GGGAGGACGAUGCGGAAACCAACCGUUGACCACCUUUUCGUUUCCGGAAAGUCCCCAGACGACUCGCCCGA
modifications: 2'-F C and U
In turn, B11 showed a Kd in data set [1] of 110 nM.

B12: E9P2-2 (ssRNA)
RNA: GGGAGGACGAUGCGGUGCCCACUAUGCGUGCCGAAAAACAUUUCCCCCUCUACCCCAGACGACUCGCCCGA
modifications: 2'-F C and U
Regarding B12, the dissociation constant (Kd) in data set [3] turned out to be 8 nM.

B13: TN9.4 (ssRNA)
RNA: GGGAGGACGAUGCGGAACAAUGCACUCGUCGCCGUAAUGGAUGUUUUGCUCCCUG
modifications: 2'-F C and U; 3'-3' cap
As for B13, in data set [4], the affinity, expressed as Kd, was 2 nM.

B14: TN9.4M135A10 (ssRNA)
RNA: GGGAGGACGAUGCGGAACAAUGCACUCGUCGCCGUAAUGGAUGUUUUGCUCCCUG
modifications: 2'-F C and U; 2'-OMe purines of sectors 1,3,5 plus A10; 5' hexyl amine; 3'-3' cap
In turn, B14 yielded a Kd in data set [5] of 1.3 nM.

B15: TN9.4M1235 (ssRNA)
RNA: GGGAGGACGAUGCGGAACAAUGCACUCGUCGCCGUAAUGGAUGUUUUGCUCCCUG
modifications: 2'-F C and U; 2'-OMe purines of sectors 1,2,3,5 (G28,G31,G34 2'-OH); 5' hexyl amine; 3'-3' cap
In data set [5], B15 showed a Kd of 16.5 nM.

B16: TN9.4M135G28 (ssRNA)
RNA: GGGAGGACGAUGCGGAACAAUGCACUCGUCGCCGUAAUGGAUGUUUUGCUCCCUG
modifications: 2'-F C and U; 2'-OMe purines of sectors 1,3,5 plus G28; 5' hexyl amine; 3'-3' cap
With B16, binding in data set [5] was put at a Kd of 37 nM.

B17: TN9.4M1 (ssRNA)
RNA: GGGAGGACGAUGCGGAACAAUGCACUCGUCGCCGUAAUGGAUGUUUUGCUCCCUG
modifications: 2'-F C and U; 2'-OMe G1,G2,G3,A4,G5,G55; 3'-3' cap
B17 returned an equilibrium dissociation constant (Kd) in data set [5] of 6 nM.

B18: TN9.4M135A7 (ssRNA)
RNA: GGGAGGACGAUGCGGAACAAUGCACUCGUCGCCGUAAUGGAUGUUUUGCUCCCUG
modifications: 2'-F C and U; 2'-OMe purines of sectors 1,3,5 plus A7; 5' hexyl amine; 3'-3' cap
On to B18, for which, in data set [5], the Kd was 1.7 nM.

B19: TN9.4M135G31 (ssRNA)
RNA: GGGAGGACGAUGCGGAACAAUGCACUCGUCGCCGUAAUGGAUGUUUUGCUCCCUG
modifications: 2'-F C and U; 2'-OMe purines of sectors 1,3,5 plus G31; 5' hexyl amine; 3'-3' cap
In data set [5], B19 gave a dissociation constant (Kd) of 55 nM.

B20: TN9.4M5 (ssRNA)
RNA: GGGAGGACGAUGCGGAACAAUGCACUCGUCGCCGUAAUGGAUGUUUUGCUCCCUG
modifications: 2'-F C and U; 2'-OMe A36,A37,G39,G40,A41,G43,G48; 3'-3' cap
B20 had a Kd in data set [5] of 4 nM.

B21: TN9.4M135G6 (ssRNA)
RNA: GGGAGGACGAUGCGGAACAAUGCACUCGUCGCCGUAAUGGAUGUUUUGCUCCCUG
modifications: 2'-F C and U; 2'-OMe purines of sectors 1,3,5 plus G6; 5' hexyl amine; 3'-3' cap
Molecule B21 displayed an equilibrium dissociation constant (Kd) in data set [5] of 2.2 nM.

B22: TN9.4M135G34 (ssRNA)
RNA: GGGAGGACGAUGCGGAACAAUGCACUCGUCGCCGUAAUGGAUGUUUUGCUCCCUG
modifications: 2'-F C and U; 2'-OMe purines of sectors 1,3,5 plus G34; 5' hexyl amine; 3'-3' cap
In data set [5], B22 registered a Kd of 7 nM.

B23: TN9.4Me (ssRNA)
RNA: GGGAGGACGAUGCGGAACAAUGCACUCGUCGCCGUAAUGGAUGUUUUGCUCCCUG
modifications: 2'-F C and U; 2'-OMe all purines; 3'-3' cap
B23: the affinity in data set [5], expressed as Kd, was 10 nM.

B24: TN9.4M135G12G14 (ssRNA)
RNA: GGGAGGACGAUGCGGAACAAUGCACUCGUCGCCGUAAUGGAUGUUUUGCUCCCUG
modifications: 2'-F C and U; 2'-OMe purines of sectors 1,3,5 plus G12,G14; 5' hexyl amine; 3'-3' cap
Molecule B24 displayed a dissociation constant Kd in data set [5] of 2.5 nM.

B25: TN9.4M3 (ssRNA)
RNA: GGGAGGACGAUGCGGAACAAUGCACUCGUCGCCGUAAUGGAUGUUUUGCUCCCUG
modifications: 2'-F C and U; 2'-OMe G15,A16,A17,A19,A20,G22,A24; 3'-3' cap
With B25, binding in data set [5] was characterised by a dissociation constant (Kd) of 7 nM.

B26: TN9.4M2 (ssRNA)
RNA: GGGAGGACGAUGCGGAACAAUGCACUCGUCGCCGUAAUGGAUGUUUUGCUCCCUG
modifications: 2'-F C and U; 2'-OMe G6,A7,G9,A10,G12,G14; 3'-3' cap
For the molecule B26, the Kd in data set [5] was determined as 20 nM.

B27: TN9.4M135G9 (ssRNA)
RNA: GGGAGGACGAUGCGGAACAAUGCACUCGUCGCCGUAAUGGAUGUUUUGCUCCCUG
modifications: 2'-F C and U; 2'-OMe purines of sectors 1,3,5 plus G9; 5' hexyl amine; 3'-3' cap
In the case of B27, in data set [5], the dissociation constant Kd was 7.7 nM.

B28: TN21 (ssRNA)
RNA: GGGAGGACGAUGCGGACUGGACCAAACCGUCGCCGAUACCCGGAUACUUUGCUCCCAGACGACUCGCCCGA
modifications: 2'-F C and U
The molecule B28 displayed a Kd in data set [3] of 10 nM.

B29: TN24 (ssRNA)
RNA: GGGAGGACGAUGCGGGACCAACUAAACUGUUCGAAAGCUGGAACAUGUCCUGACGCCAGACGACUCGCCCGA
modifications: 2'-F C and U
The molecule B29 gave a Kd in data set [1] of 10 nM.

B30: TN4 (ssRNA)
RNA: GGGAGGACGAUGCGGCAACCUCGAAAGACUUUUCCCGCAUCACUGUGUACUCCCCCAGACGACUCGCCCGA
modifications: 2'-F C and U
With B30, in data set [2], the dissociation constant Kd is 40 nM.

B31: TN22 (ssRNA)
RNA: GGGAGGACGAUGCGGCAACCUCGAUAGACUUUUCCCGCAUCACUGUGUACUCCCCCAGACGACUCGCCCGA
modifications: 2'-F C and U
Take B31: binding in data set [6] was characterised by a dissociation constant (Kd) of 40 nM.

B32: E9P2-1 (ssRNA)
RNA: GGGAGGACGAUGCGGUGCCCAUAGAAGCGUGCCGCUAAUGCUAACGCCCUCCCCCAGACGACUCGCCCGA
modifications: 2'-F C and U
The molecule B32 returned a Kd in data set [3] of 2 nM. As to GGGAGGACGCACUCGUCGCCGUAAUGGAUGUUUUGCUCCCUG (ssRNA, 2'-F C and U [2'-F: 8,10,12-14,16,17,19,20,22,25,29,31-34,36-41]) [TN9 with CACU loop], the binding result in data set [7] is recorded as “binds”. On the same count and under the same terms, as for GGGAGGACGGAGACGUCGCCGUAAUGGAUGUUUUGCUCCCUG (ssRNA, 2'-F C and U [2'-F: 8,14,16,17,19,20,22,25,29,31-34,36-41]) [TN9 with GAGA loop], the entry is “binds”.
